Consider 1 molecule from doi:10.1101/2025.03.12.642038, “Structural, biophysical and biological analysis and characterisation of IRF4 DNA-binding domain mutations associated with multiple myeloma”.

Assay in all cases: FP; FP: PBS + 0.05% Tween20, 5 nM DNA, 1 h, room temperature; SPR: Biacore S200, SA chip, protein 0.1-4500 nM, running buffer not given in material; errors are SD
What all share (details): protein: recombinant; tags: N-terminal His8-linker-His8-TEV, cleaved; label: 3' fluorescein (FAM); hairpin, TTTT loop
In general terms: In SPR one partner is held on a chip, and binding of the other changes the refractive index at the surface.

One data set deals with T1, IRF4 DBD D117A (Homo sapiens, UniProt Q15306 20-132, D117A).
T1 sequence: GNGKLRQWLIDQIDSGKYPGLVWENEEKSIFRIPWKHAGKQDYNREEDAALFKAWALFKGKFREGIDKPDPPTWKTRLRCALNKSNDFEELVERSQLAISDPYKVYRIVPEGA

In the next data set the target is T2, IRF4 DBD wild-type (Homo sapiens, UniProt Q15306 20-132).
T2 sequence: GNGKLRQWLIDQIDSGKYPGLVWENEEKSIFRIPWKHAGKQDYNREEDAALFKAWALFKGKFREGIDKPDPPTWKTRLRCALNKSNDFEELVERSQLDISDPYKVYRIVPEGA

Another data set concerns the target T3, IRF4 DBD S114R (Homo sapiens, UniProt Q15306 20-132, S114R).
T3 sequence: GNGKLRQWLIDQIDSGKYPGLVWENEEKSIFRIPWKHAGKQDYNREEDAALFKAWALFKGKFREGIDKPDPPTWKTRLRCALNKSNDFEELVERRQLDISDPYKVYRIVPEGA

A further data set deals with T4, IRF4 DBD C99A (Homo sapiens, UniProt Q15306 20-132, C99A).
T4 sequence: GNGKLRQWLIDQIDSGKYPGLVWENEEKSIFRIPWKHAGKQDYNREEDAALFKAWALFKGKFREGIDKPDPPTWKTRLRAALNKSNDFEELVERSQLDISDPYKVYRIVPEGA

The next data set has as its target T5, IRF4 DBD S114N (Homo sapiens, UniProt Q15306 20-132, S114N).
T5 sequence: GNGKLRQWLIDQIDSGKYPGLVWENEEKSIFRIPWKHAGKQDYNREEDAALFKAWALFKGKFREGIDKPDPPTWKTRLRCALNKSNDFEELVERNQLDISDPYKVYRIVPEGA

For a further data set, the target named is T6, IRF4 DBD K123R (Homo sapiens, UniProt Q15306 20-132, K123R).
T6 sequence: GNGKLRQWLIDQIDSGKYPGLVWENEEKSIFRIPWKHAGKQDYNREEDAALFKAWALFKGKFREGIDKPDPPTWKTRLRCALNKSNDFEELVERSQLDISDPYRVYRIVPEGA

Another data set has as its target T7, IRF4 DBD L70V (Homo sapiens, UniProt Q15306 20-132, L70V).
T7 sequence: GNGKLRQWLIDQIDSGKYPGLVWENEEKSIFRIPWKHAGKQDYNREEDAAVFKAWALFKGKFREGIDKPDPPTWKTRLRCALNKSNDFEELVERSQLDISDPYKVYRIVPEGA

For another data set, the target named is T8, IRF4 DBD K59R (Homo sapiens, UniProt Q15306 20-132, K59R).
T8 sequence: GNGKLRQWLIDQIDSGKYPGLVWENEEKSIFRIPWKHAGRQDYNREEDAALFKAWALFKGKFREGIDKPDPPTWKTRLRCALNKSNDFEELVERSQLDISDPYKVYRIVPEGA

Another data set deals with T9, IRF4 DBD T95K (Homo sapiens, UniProt Q15306 20-132, T95K).
T9 sequence: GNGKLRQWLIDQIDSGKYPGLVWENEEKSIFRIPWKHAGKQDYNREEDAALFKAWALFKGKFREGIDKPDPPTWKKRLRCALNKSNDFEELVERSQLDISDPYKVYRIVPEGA

In another data set the target is T10, IRF4 DBD T95R (Homo sapiens, UniProt Q15306 20-132, T95R).
T10 sequence: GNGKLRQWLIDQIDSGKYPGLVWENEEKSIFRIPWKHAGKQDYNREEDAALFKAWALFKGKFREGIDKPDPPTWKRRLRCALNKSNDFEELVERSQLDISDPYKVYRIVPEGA

With CTTGGTTTCACTTCCTGCGTTTTCGCAGGAAGTGAAACCAAG (structured_DNA) [IRE hairpin (FAM)], the Kd worked out at 109 ± 31 nM in the data set with IRF4 DBD D117A; 565 ± 191 nM in the data set with IRF4 DBD wild-type; 332 ± 162 nM with IRF4 DBD S114R; 353 ± 169 nM in the data set with IRF4 DBD C99A; 181 ± 14 nM in the data set with IRF4 DBD S114N; 143 ± 34 nM with IRF4 DBD K123R. The Kd with IRF4 DBD L70V worked out at 127 ± 27 nM; in the data set with IRF4 DBD K59R, 350 ± 275 nM; in the data set with IRF4 DBD T95K it was 298 ± 154 nM; with IRF4 DBD T95R it was 151 ± 72 nM.

The Kd is the concentration at which binding is half-saturated.
